{
  "source": "paper PMC10308326",
  "key": {"[1]": {"tested_on": "TALE tetM_1298 (14 bp recognition) (engineered TALE (AvrBs3 scaffold in pMAL-c2X, repeats replaced; Xanthomonas?))", "assay": "EMSA", "settings": "EMSA: 12 mM Tris, 60 mM KCl, 2 mM DTT, 0.1 mg/mL BSA, 30% glycerol, 5 mM MgCl2, 0.2 mM EDTA, RT 1 h then 4 °C 30 min, TALE 0.03-200 nM; GO assay: TALE storage …"}, "[2]": {"tested_on": "TALE tetM_611 (16 bp recognition) (engineered TALE (AvrBs3 scaffold in pMAL-c2X, repeats replaced; Xanthomonas?))", "assay": "EMSA", "settings": "EMSA: 12 mM Tris, 60 mM KCl, 2 mM DTT, 0.1 mg/mL BSA, 30% glycerol, 5 mM MgCl2, 0.2 mM EDTA, RT 1 h then 4 °C 30 min, TALE 0.03-200 nM; GO assay: TALE storage …"}},
  "data": [
    {"sequence": "GCGCCTTTCTGGGCTTCGCG / TTTTTTTTTTTTTTTCGCGAAGCCCAGAAAGGCGC [tetM_1298 EMSA oligo]", "values": [
      {"measurement": "Kd", "setting": "[1]", "result": 1.2, "unit": "nM"}
    ]},
    {"sequence": "GCGTGTTCTCTGTTCCCTCGCG / TTTTTTTTTTTTTTTCGCGAGGGAACAGAGAACACGC [tetM_611 EMSA oligo]", "values": [
      {"measurement": "Kd", "setting": "[2]", "result": 4.6, "unit": "nM"}
    ]}
  ]
}
